Columns and labels:
[1] = target: Z A1AT subunit of MZ heterozygote liver polymers (human (endogenous in liver tissue)); assay: negative-stain electron microscopy of liver polymers; polymers formed in vivo, extracted from inclusion bodies of explant liver and purified; imaged with and without Fab2H2, which marks M subunits; subunits counted
[2] = target: T1, plasma-purified monomeric native M alpha-1-antitrypsin (Homo sapiens (Human)., UniProt P01009); assay: SPR; Biacore T100; mAb2H2 amine-coupled to a CM5 chip; A1AT analytes 0–2 μM in PBS with 0.05% v/v Tween-20 at 30 μL/min; maximal responses fit by a hyperbolic function; details: both partners purified
T1 construct: Plasma glycoprotein; also called M A1AT; native M A1AT
T1 sequence (P01009 25-418): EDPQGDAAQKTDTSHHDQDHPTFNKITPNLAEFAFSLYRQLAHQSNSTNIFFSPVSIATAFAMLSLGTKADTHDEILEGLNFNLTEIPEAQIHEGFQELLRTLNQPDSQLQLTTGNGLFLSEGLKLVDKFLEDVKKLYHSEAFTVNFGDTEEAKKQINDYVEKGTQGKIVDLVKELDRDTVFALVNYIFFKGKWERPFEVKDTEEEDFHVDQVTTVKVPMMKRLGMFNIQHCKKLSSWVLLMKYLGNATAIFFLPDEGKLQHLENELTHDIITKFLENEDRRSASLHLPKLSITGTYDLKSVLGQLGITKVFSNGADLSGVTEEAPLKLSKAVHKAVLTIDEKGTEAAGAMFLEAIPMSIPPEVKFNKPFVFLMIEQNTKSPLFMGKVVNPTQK

Molecule: Z A1AT subunit of MZ heterozygote liver polymers (natural protein)
- mean length in subunits of circular polymers without a detectable M component [1]: 6.6 subunits
- mean length in subunits of linear polymers without a detectable M component [1]: 6.5 subunits

B1: monoclonal antibody mAb2H2 (antibody, V domains shown)
VH: EVQLEESGGGLVKPGGSLKLSCAASGFAFSIYDMSWVRQTPEKRLEWVAYISSGGGTTYYPDTVKGRFTISRDNAKNTLYLQMSSLKSEDTAIYYCARHAGVHYWGQGTTLTVSS
VL: DIVMTQSPSSMYASLGERVTITCKASQDINSYLSWFQQKPGKSPKNLIYRANRLVDGVPSRFSGSGSGQDYSLTISSLEYEDMGIYYCLQYDEFPWTFGGGTKLESK
notes: Whole mouse monoclonal antibody; Raised against heat-induced and denaturant-induced polymers of plasma A1AT; also called clone 2H2; source: hybridoma from splenocytes of immunized BALB/c mice; in culture medium (screen) and purified (HiTrap Protein G)
- Kd [2]: 447 nM
